Measured values from US20260248892A1 (Sanofi, published 2026).
Positions count from the first letter of the chain named.

B1: scl-Fc fusion protein INS018 (Fc fusion)
chain: FVNQHLCGSHLVEALELVCGERGFHYTPKTGSYPGGVGIVEQCCTSICSLSQLEDYCGGEAEDLQVGQVELGGGPGAGSLQPEGSLQGGPSVFLFPPKPKDTLMISRTPEVTCVVVDVSHEDPEVKFNWYVDGVEVHNAKTKPREEQYNSTYRVVSVLTVLHQDWLNGKEYKCKVSNKALPAPIEKTISKAKGQPREPQVYTLPPSRDELTKNQVSLTCLVKGFYPSDIAVEWESNGQPENNYKTTPPVLDSDGSFFLYSKLTVDKSRWQQGNVFSCSVMHEALHNHYTQKSLSLSPGGGGGSAESKYGPPCPPCPA
B2: scl-Fc fusion protein INS022 (Fc fusion)
chain: B1 chain with D55N
B3: scl-Fc fusion protein INS020 (Fc fusion)
chain: B1 chain with G31E, S32E, G36D, D55N
B4: scl-Fc fusion protein INS017 (Fc fusion)
chain: SFVNQHLCGSHLVEALHLVCGERGFHYTPKTGSYPGGVGIVEQCCTSICSLSQLENYCGGEAEDLQVGQVELGGGPGAGSLQPEGSLQGGPSVFLFPPKPKDTLMISRTPEVTCVVVDVSHEDPEVKFNWYVDGVEVHNAKTKPREEQYNSTYRVVSVLTVLHQDWLNGKEYKCKVSNKALPAPIEKTISKAKGQPREPQVYTLPPSRDELTKNQVSLTCLVKGFYPSDIAVEWESNGQPENNYKTTPPVLDSDGSFFLYSKLTVDKSRWQQGNVFSCSVMHEALHNHYTQKSLSLSPGGGGGSAESKYGPPCPPCPA
B5: scl-Fc fusion protein INS023 (Fc fusion)
chain: B4 chain with H17E
B6: scl-Fc fusion protein INS019 (Fc fusion)
chain: B4 chain with H17E, N56D
B7: scl-Fc fusion protein INS021 (Fc fusion)
chain: SFVNQHLCGSHLVEALELVCGERGFHYTPKTEEYPGDVGIVEQCCTSICSLSQLENYCGGEAEDLQVGQVELGGGPGAGSLQLALEGSLQGGPSVFLFPPKPKDTLMISRTPEVTCVVVDVSHEDPEVKFNWYVDGVEVHNAKTKPREEQYNSTYRVVSVLTVLHQDWLNGKEYKCKVSNKALPAPIEKTISKAKGQPREPQVYTLPPSRDELTKNQVSLTCLVKGFYPSDIAVEWESNGQPENNYKTTPPVLDSDGSFFLYSKLTVDKSRWQQGNVFSCSVMHEALHNHYTQKSLSLSPGGGGGSAESKYGPPCPPCPA

Target: human insulin receptor isoform B (human, UniProt P06213 28-1382)
Assay: cell-based or functional assay

hIR-B-phosphorylation [EC50 nM] mean [nM]	Binder
260	B1
42.2	B2
185	B3
36	B4
59.8	B5
292	B6
288	B7

Target: Pig IR (pig, UniProt F1SCL0 28-1382)
Assay: cell-based or functional assay

Pig IR phosphorylation [EC 50 nM] mean [nM]	Binder
60	B1
15.9	B2
157	B3
26.3	B4
29.9	B5
43	B6
56.7	B7

Target: Rat IR (rat, UniProt P15127 27-1383)
Sequence (P15127 27-1383): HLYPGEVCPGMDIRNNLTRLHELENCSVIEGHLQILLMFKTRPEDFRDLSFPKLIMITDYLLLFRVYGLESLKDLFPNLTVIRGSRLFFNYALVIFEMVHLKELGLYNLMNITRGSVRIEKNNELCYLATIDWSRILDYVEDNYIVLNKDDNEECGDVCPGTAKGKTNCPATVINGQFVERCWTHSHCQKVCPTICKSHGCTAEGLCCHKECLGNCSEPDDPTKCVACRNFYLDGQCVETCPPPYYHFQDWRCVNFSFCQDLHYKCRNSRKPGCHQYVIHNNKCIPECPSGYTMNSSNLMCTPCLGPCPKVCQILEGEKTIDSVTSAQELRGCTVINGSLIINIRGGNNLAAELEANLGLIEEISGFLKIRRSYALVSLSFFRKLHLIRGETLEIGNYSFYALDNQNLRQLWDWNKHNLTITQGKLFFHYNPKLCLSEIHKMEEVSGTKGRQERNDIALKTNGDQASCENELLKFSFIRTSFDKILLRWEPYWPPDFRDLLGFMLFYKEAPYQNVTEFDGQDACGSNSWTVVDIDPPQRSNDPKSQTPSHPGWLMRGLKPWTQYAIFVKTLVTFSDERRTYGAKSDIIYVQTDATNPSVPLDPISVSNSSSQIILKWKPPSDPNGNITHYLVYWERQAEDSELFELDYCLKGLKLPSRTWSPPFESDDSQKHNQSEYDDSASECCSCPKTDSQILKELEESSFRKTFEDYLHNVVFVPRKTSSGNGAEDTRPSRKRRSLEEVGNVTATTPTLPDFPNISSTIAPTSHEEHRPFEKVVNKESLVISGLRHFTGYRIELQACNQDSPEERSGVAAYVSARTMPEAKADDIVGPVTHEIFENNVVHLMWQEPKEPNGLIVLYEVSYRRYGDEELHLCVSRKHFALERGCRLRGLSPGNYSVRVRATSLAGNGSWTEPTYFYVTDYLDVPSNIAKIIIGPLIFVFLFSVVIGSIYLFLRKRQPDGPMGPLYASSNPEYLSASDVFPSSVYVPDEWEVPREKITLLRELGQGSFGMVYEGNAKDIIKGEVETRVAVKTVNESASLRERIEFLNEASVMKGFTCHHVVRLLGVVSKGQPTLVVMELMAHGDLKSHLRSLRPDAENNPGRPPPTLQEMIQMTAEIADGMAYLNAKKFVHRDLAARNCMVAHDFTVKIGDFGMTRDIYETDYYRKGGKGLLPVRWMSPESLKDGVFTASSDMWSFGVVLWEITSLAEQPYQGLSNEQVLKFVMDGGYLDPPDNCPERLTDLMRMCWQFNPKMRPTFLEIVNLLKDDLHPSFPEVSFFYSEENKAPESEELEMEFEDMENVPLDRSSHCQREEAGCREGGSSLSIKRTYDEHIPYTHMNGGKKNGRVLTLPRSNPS
Assay: cell-based or functional assay

Rat IR phosphorylation [EC50 nM] mean [nM]	Binder
233	B1
64.9	B2
247	B3
53.6	B4
381	B5
2200	B6
620	B7

Target: human insulin receptor isoform A (human, UniProt P06213-2 28-1370)
Assay: cell-based or functional assay

hIR-A phosphorylation [EC50 nM] mean [nM]	Binder
536	B1
215	B2
718	B3
70.6	B4
408	B5
666	B6
447	B7
